Measurements published in article PMC8115288 (2021).

B1: GST-CTD (C-terminal domain of HIV-1 integrase, aa 201-288) [HIV-1 (Hx3B)] / His6-SUMO-INI1_(183-304) [not stated] (parent complex)
chain 1: VDIIATDIQTKELQKQITKIQNFRVYYRDSRNPLWKGPAKLLWKGEGAVVIQDNSDIKVVPRRKAKIIRDYGKQMAGDDCVASRQDED
chain 2: PEVLVPIRLDMEIDGQKLRDAFTWNMNEKLMTPEMFSEILCDDLDLNPLTFVPAIASAIRQQIESYPTDSILEDQSDQRVIIKLNIHVGNISLVDQFEWDMSEKENSPEKFALKLCSELGLG

Variants of: B1
Test: Alpha assay; low salt conditions; parent: 100; read off a plot

Variant | percent of parent
chain 1 W35A | ~17 % of WT
chain 1 W35E | ~2 % of WT
chain 1 W35K | ~4 % of WT
chain 1 W35F | ~90 % of WT
chain 1 K64A, chain 1 K66A | ~2 % of WT
chain 1 K44A | ~15 % of WT
